{"source": "patent US20120100582A1", "about": "(DSM IP ASSETS B V, published 2012)", "proteins": {"B1": {"name": "APLE L43D variant (enzyme)", "chain": "GQPASPPVVDTAQGRVLGKYVSLEGLAQPVAVFLGVPFAKPPDGSLRFAPPQPAEPWSFVKNTTSYPPMCCQEPIGGQMLSDLFTNRKERLIPEFSEDCLYLNIYTPADLTKRGRLPVMVWIHGGGLVVGGASTYDGLALAAHENVVVVAIQYRLGIWGFFSTGDEHSRGNWGHLDQVAALHWVQENIANFGGDPGSVTIFGESAGGESVSVLVLSPLAKNLFHRAISESGVAFTAGLVRKDMKAAAKQIAVLAGCKTTTSAVFVHCLRQKSEDELLDLTLKMKFFALDLHGDPRESHPFLTTVVDGVLLPKMPEEILAEKDFNTVPYIVGINKQEFGWLLPTMMGFPLSEGKLDQKTATSLLWKSYPIANIPEELTPVATDKYLGGTDDPVKKKDLFLDLMGDVVFGVPSVTVARQHRDAGAPTYMYEFQYRPSFSSDKKPKTVIGDHGDEIFSVFGFPLLKGDAPEEEVSLSKTVMKFWANFARSGNPNGEGLPHWPMYDQEEGYLQIGVNTQAAKRLKGEEVAFWNDLLSKEAAKKPPKIKHAEL"}, "B2": {"name": "PLE5 with V263D mutation (enzyme)", "chain": "B1 chain with D43L, E73D, I75V, G76A, L80T, R87G, V263D, F459A, L461F, K463R", "notes": "Monomeric mutant; also called PLE5-V263D"}, "B3": {"name": "APLE with V263D mutation (enzyme)", "chain": "B1 chain with D43L, V263D", "notes": "Monomeric mutant, tested in E. coli cleared lysate; also called APLE-V263D; mutant, monomeric APLE"}, "B4": {"name": "PLE3 with V263D mutation (enzyme)", "chain": "B1 chain with D43L, V263D, F285P, F286L, A287T", "notes": "Monomeric mutant; also called PLE3-V263D"}, "B5": {"name": "PICE with V263D mutation (enzyme)", "chain": "GQPASPPVVDTAQGRVLGKYVSLEGLAQPVAVFLGVPFAKPPLGSLRFAPPQPAEPWSFVKNTTSYPPMCCQDPVAGQMTSDLFTNGKERLIPEFSEDCLYLNIYTPADLTKRGRLPVMVWIHGGGLVVGGASTYDGLALAAHENVVVVAIQYRLGIWGFFSTGDEHSRGNWGHLDQVAALHWVQENIANFGGDTGSVTIFGESAGGESVSVLVLSPLAKNLFHRAISESGVALTAGLVRKDMKAAAKQIAVLAGCKTTTSADFVHCLRQKSEDELLDLTLKMKFLTLDLHGDPRESHPFLPTVVDGVLLPKMPEEILAEKDFNTVPYIVGINKQEFGWLLPTMMGFPLSEGKLDQKTATSLLWKSFPITNIPEELTPVATDKYLGGTDDPVKKKDLFLDLMGDVVFGVPSVTVARQHRDAGAPTYMYEFQYRPSFSSDKKPKTVIGDHGDEIFSVFGFPLLKGDAPEEEVSLSKTVMKFWANFARSGNPNGEGLPHWPMYDQEEGYLQIGVNTQAAKRLKGEEVAFWNDLLSKEAAKKPPKIKHAEL", "notes": "Monomeric mutant; also called PICE-V263D"}, "B6": {"name": "PLE4 with V263D mutation (enzyme)", "chain": "B5 chain with T195P, L234F, F285P, P302T, F367Y, T370A, F459A, L461F, K463R", "notes": "Monomeric mutant; also called PLE4-V263D"}, "B7": {"name": "γ-PLE with V263D mutation (enzyme)", "chain": "GQPASPPVVDTAQGRVLGKYVSLEGLAQPVAVFLGVPFAKPPLGSLRFAPPQPAEPWSFVKNTTSYPPMCCQDPVVEQMTSDLFTNGKERLTLEFSEDCLYLNIYTPADLTKRGRLPVMVWIHGGGLVLGGAPMYDGVVLAAHENVVVVAIQYRLGIWGFFSTGDEHSRGNWGHLDQVAALHWVQENIANFGGDPGSVTIFGESAGGESVSVLVLSPLAKNLFHRAISESGVALTVALVRKDMKAAAKQIAVLAGCKTTTSADFVHCLRQKSEDELLDLTLKMKFLTLDFHGDQRESHPFLPTVVDGVLLPKMPEEILAEKDFNTVPYIVGINKQEFGWLLPTMMGFPLSEGKLDQKTATSLLWKSYPIANIPEELTPVATDKYLGGTDDPVKKKDLFLDLMGDVVFGVPSVTVARQHRDAGAPTYMYEFQYRPSFSSDKKPKTVIGDHGDEIFSVFGFPLLKGDAPEEEVSLSKTVMKFWANFARSGNPNGEGLPHWPMYDQEEGYLQIGVNTQAAKRLKGEEVAFWNDLLSKEAAKKPPKIKHAEL", "notes": "Monomeric mutant; also called γPLE-V263D"}, "B8": {"name": "PLE2 with V263D mutation (enzyme)", "chain": "B7 chain with F459A, L461F, K463R", "notes": "Monomeric mutant; also called PLE2-V263D"}, "B9": {"name": "APLE wild-type (enzyme)", "chain": "B1 chain with D43L", "notes": "Homotrimer on native gel; also called pig liver esterase"}, "B10": {"name": "γPLE wild-type (enzyme)", "chain": "B7 chain with D263V", "notes": "Tested in E. coli cleared lysate; Homotrimer; also called gamma-PLE"}}, "note": "Substitutions are numbered along the chain they refer to. Names may count otherwise."}
{"target": "the molecule itself", "experiment": "method not named, self-association"}
{"protein": "B1", "binding result": "no binding"}
{"target": "the molecule itself", "experiment": "blue native gel electrophoresis, self-association", "procedure": "Blue native gel electrophoresis (BN-PAGE) of bacterial lysates containing APLE was performed according to the method described by Reisinger and Eichacker (2006), “Analysis of membrane protein complexes by blue native PAGE”, Proteomics 6 Suppl 2, 6-15, with the following modifications. Aliquots containing 200 μg of soluble proteins were diluted with 10 mM Tris/HCl pH 7.4 to a final volume of 95 μl. Five μl of loading buffer was added to the sample before applying them on an 8-16% linear gradient gel. Gradient gels (16×20 cm) were created with the help of a Bio-Rad Gradient Former model 485 (Bio-Rad Laboratories, Vienna, Austria). Electrophoresis was performed at a constant current of 24 mA per gel at 4° C. After electrophoresis, gels were incubated in 0.1 M potassium phosphate buffer, pH 7.0, for 20 min at room temperature. For the in-gel-detection of esterase activity, the substrate fluorescein diacetate (FDA) was dissolved in acetone [4 mg/ml] and applied on a Biodyne® A membrane ([…], 16×20 cm) (Pall Life Science, Michigan, USA). After evaporation of acetone, the membrane was brought in close contact with the gel which was placed on a glass plate. The gel-membrane sandwich was incubated at 37° C. for 30 min before detection of fluorescent bands.\nEsterase activity was visualized herein through staining with fluorescein resulting from hydrolysis of fluorescein diacetate (FDA). All 7 wild-type enzymes are trimers of about the same height on the native gel, whereas the V263D mutants show bands on the lower third of the gel. Multiple bands were excised and analyzed on an SDS-PAGE gel. Multiple bands result in one clear band at the size of about 58 kDa (data not shown). It is assumed that these bands result from different conformations of the same monomer."}
{"protein": "B2", "binding result": "no binding"}
{"protein": "B3", "binding result": "no binding"}
{"protein": "B4", "binding result": "no binding"}
{"protein": "B5", "binding result": "no binding"}
{"protein": "B6", "binding result": "no binding"}
{"protein": "B7", "binding result": "no binding"}
{"protein": "B8", "binding result": "no binding"}
{"target": "the molecule itself", "experiment": "blue native gel electrophoresis, self-association (homotrimer)", "procedure": "Blue native gel electrophoresis (BN-PAGE) of bacterial lysates containing APLE was performed according to the method described by Reisinger and Eichacker (2006), “Analysis of membrane protein complexes by blue native PAGE”, Proteomics 6 Suppl 2, 6-15, with the following modifications. Aliquots containing 200 μg of soluble proteins were diluted with 10 mM Tris/HCl pH 7.4 to a final volume of 95 μl. Five μl of loading buffer was added to the sample before applying them on an 8-16% linear gradient gel. Gradient gels (16×20 cm) were created with the help of a Bio-Rad Gradient Former model 485 (Bio-Rad Laboratories, Vienna, Austria). Electrophoresis was performed at a constant current of 24 mA per gel at 4° C. After electrophoresis, gels were incubated in 0.1 M potassium phosphate buffer, pH 7.0, for 20 min at room temperature. For the in-gel-detection of esterase activity, the substrate fluorescein diacetate (FDA) was dissolved in acetone [4 mg/ml] and applied on a Biodyne® A membrane ([…], 16×20 cm) (Pall Life Science, Michigan, USA). After evaporation of acetone, the membrane was brought in close contact with the gel which was placed on a glass plate. […]\nEsterase activity was visualized herein through staining with fluorescein resulting from hydrolysis of fluorescein diacetate (FDA). […] Multiple bands were excised and analyzed on an SDS-PAGE gel. […]"}
{"protein": "B9", "binding result": "binds"}
{"protein": "B10", "binding result": "binds"}
